Laboratory results: the RNAGym collection of RNA variant scans (doi:10.7554/elife.80360)

B1: CPEB3 Ribozyme (parent)
chain: GGGGGCCACAGCAGAAGCGUUCACGUCGCGGCCCCUGUCAGAUUCUGGUGAAUCUGCGAAUUCUGCUGU

Variants of: B1
Assay: self-cleavage, relative activity (ratio to wild type); higher = more cleavage; co-transcriptional

Row | Variant | self-cleavage
1 | C34A A59U | 0.436
2 | C34A A59G | 0.609
3 | C33G C35G | 0.318
4 | C33G C35A | 0.304
5 | C33G A59C | 0.326
6 | C34A G56C | 0.438
7 | C34A G56U | 0.679
8 | C34G G41A | 0.318
9 | C34G G41C | 0.296
10 | C34G G41U | 0.33
11 | C34A G41U | 0.339
12 | C34A G41C | 0.33
13 | C34A G41A | 0.341
14 | C34G U43G | 0.383
15 | C34G U43C | 0.547
16 | C34G C35U | 0.29
17 | C34G C35G | 0.244
18 | C34G C35A | 0.196
19 | C34U C45G | 0.992
20 | C34U C45U | 1.03
21 | C34G U38A | 0.733
22 | C34U C35U | 0.736
23 | C34U C35G | 0.313
24 | C34U C35A | 0.194

Row | Variant | self-cleavage
25 | C34U U43G | 0.708
26 | C33U C34A | 0.413
27 | C33U C34U | 0.825
28 | C34G G48C | 0.722
29 | C34G G48U | 0.753
30 | C34G G48A | 0.765
31 | C34A U62G | 0.434
32 | C34A U62A | 0.602
33 | C34A U62C | 0.358
34 | C33G G37U | 0.245
35 | C33G G37A | 0.299
36 | C34G U64C | 0.402
37 | C34G U64G | 0.35
38 | C34G U64A | 0.384
39 | C33G U61C | 0.341
40 | C33G U61A | 0.317
41 | C33G U61G | 0.193
42 | C33G C39U | 0.337
43 | C33G C39G | 0.513
44 | C33G C39A | 0.387
45 | C34A G37U | 0.26
46 | C34A G37A | 0.301
47 | C34A A40G | 0.788
48 | C34A A40U | 0.468

Row | Variant | self-cleavage
49 | C34A U55G | 0.357
50 | C34A U55C | 0.264
51 | C34G C54A | 0.368
52 | C34G C54G | 0.343
53 | C34G C54U | 0.708
54 | C34A U44C | 0.724
55 | C34A U44G | 0.526
56 | C33U U69G | 1.06
57 | C33U U69A | 1.01
58 | C33U U69C | 1.05
59 | C34A C39U | 0.467
60 | C34A C39G | 0.538
61 | C33G G47A | 0.663
62 | C33G G47U | 0.682
63 | C33G G47C | 0.638
64 | C34A U53C | 0.565
65 | C34A U53G | 0.331
66 | C34A U53A | 0.409
67 | C33G U46G | 0.604
68 | C33G U46C | 0.783
69 | C34A C66U | 0.874
70 | C34A C66G | 0.667
71 | C34G A51C | 0.504
72 | C34G A51U | 0.671

Row | Variant | self-cleavage
73 | C34G A51G | 0.625
74 | C33G A52G | 0.663
75 | C33G A52C | 0.461
76 | C34U A52U | 0.975
77 | C34U A52C | 0.958
78 | C34G G37U | 0.171
79 | C34G G37A | 0.24
80 | C33U G47A | 0.972
81 | C33U G47C | 0.969
82 | C33U G47U | 0.985
83 | C34A C45U | 0.798
84 | C34U C66U | 0.977
85 | C34U C66A | 0.973
86 | C34U A51C | 0.985
87 | C34U A51U | 0.957
88 | C34U A51G | 1.01
89 | C33A U69G | 0.988
90 | C34U U44C | 0.938
91 | C34U U44A | 0.963
92 | C34U U44G | 0.859
93 | C33G A60U | 0.328
94 | C33G A60G | 0.372
95 | C33G A60C | 0.415
96 | C33U U67A | 0.971

Row | Variant | self-cleavage
97 | C33U U67G | 0.982
98 | C34A G50U | 0.8
99 | C34G C66G | 0.434
100 | C34G G65U | 0.325
101 | C34G G65C | 0.331
102 | C34A G48C | 0.857
103 | C34A G48U | 0.877
104 | C34U C39G | 0.973
105 | C34U C39U | 0.943
106 | C34U C39A | 0.834
107 | C33U A40C | 0.619
108 | C33U A40U | 0.906
109 | C33U A40G | 0.952
110 | C34U U46A | 1
111 | C34G U62A | 0.453
112 | C34G U62C | 0.316
113 | C34G U62G | 0.477
114 | C34A U49A | 0.867
115 | C34A U49C | 0.79
116 | C34G G68U | 0.929
117 | C34G G68C | 0.842
118 | C33U G50C | 1
119 | C33U G50A | 0.979
120 | C33U A42G | 0.916

Row | Variant | self-cleavage
121 | C33U A42U | 0.953
122 | C33U A42C | 0.793
123 | C33G G56C | 0.326
124 | C34U G68C | 0.962
125 | C34U G68A | 1.01
126 | C33U U61G | 0.82
127 | C33U U61A | 0.905
128 | C33U U61C | 0.913
129 | C34G C63G | 0.338
130 | C34A G47U | 0.914
131 | C34A G47A | 0.915
132 | C34A G47C | 0.887
133 | C33U U44G | 0.945
134 | C33U C66G | 0.921
135 | C33U C54U | 0.949
136 | C33U C45A | 0.987
137 | C33U C45G | 0.98
138 | C34G A40U | 0.417
139 | C34G A40C | 0.326
140 | C34G A40G | 0.631
141 | C33U C35U | 0.884
142 | C33U C35G | 0.396
143 | C33U C63U | 0.936
144 | C33U C63G | 0.82

Row | Variant | self-cleavage
145 | C33U C63A | 0.795
146 | C33G G41U | 0.268
147 | C33G U53A | 0.395
148 | C33G U53G | 0.32
149 | C34G A42C | 0.317
150 | C34A G68A | 0.935
151 | C34A G68C | 0.954
152 | C34A G68U | 0.956
153 | C33U A52C | 0.978
154 | C34G G56U | 0.538
155 | C34G G56A | 0.579
156 | C34U C63G | 0.78
157 | C33G G48A | 0.648
158 | C33G G48C | 0.629
159 | C33G G48U | 0.579
160 | C34G C39A | 0.394
161 | C34A U69G | 0.947
162 | C34A U69A | 0.971
163 | C34G | 0.74
164 | C34A | 0.869
165 | C34U | 0.991
166 | C34U G50C | 0.999
167 | C34U G50A | 1.03
